Assay: soluble on expression in E. coli; label from the status in PepcDB or PDB records

Row | Sequence | soluble on expression in E. coli
1 | QVEVIVMMHGRSTATSMVETVQELLSIESGIALDMPLTVEVKAMYEKLKQTVVKLNPVKGVLILSDMGSLTSFGNILTEELGIRTKTVTMVSTPVVLEAMRKASLGRGLEDIYQSCEQLFENKYKAHVLRAKP | not soluble
2 | MGSDKIHHHHHHMDIKLKDFEGPLDLLLHLVSKYQVDIYEVPITEVIEQYLAYIATLQAMRLEVAGEYMLMASQLMVIKSRRLLPKVVEQIDPEDDPEMDLLDQLEEYRKFKLLSEKLGEQHDERANYFSKPKLDLIYDDVQLAKDKTIIDIFLAFSKVMAEKQASLRQSHATIARDEYKIEDMMDFVRSRFETGPRLELRQLFQESQDVNEMITIFLATLELVKVHEIVLEQTETFGDIYLVRSEDESLS | not soluble
3 | MSKEDNNAVVGHQPATKVGGRRIADHGNQRAQNSTNSSDAVREAMDFDLPAKMEKAYPTAAVKQVHEKPTPAIQPAHYNRATGNGQVRNIPQKQNH | not soluble
4 | MRELVVIFGLSGSGKSFLASILHEKCGYEWLRSDVIRKQLAGLKPEESAKADYGKGIYTKEITKKVYEEMVKRAKELIDRGKKVVLDATFIKRWQRELVLKNFKDPFFILAFAPEEVIKERLKSRKDVSDADWNIYLKQKEEFEAPEEIDYCVINTNKSKEELESRLKKLLGCQLK | not soluble
5 | SMAPKPGLDFSPFDFAHFGFPSDNSGKERSFQAKPSPKLGRHVYSRPKVDIQKICIGNKNIFTVSDLKPDTQYYFDVFVVNINSNMSTAYVGTFARTKEEAKQKTVELKDGKITDVFVKRKGAKFLRFAPVSSHQKVTFFIHSCLDAVQIQVRRDGKLLLSQNVEGIQQFQLRGKPKAKYLVRLKGNKKGASMLKILATTRPTKQSFPSLPEDTRIKAFDKLRTCSSATVAWLGTQERNKFCIYKKEVDDNYNEDQKKREQNQCLGPDIRKKSEKVLCKYFHSQNLQKAVTTETIKGLQPGKSYLLDVYVIGHGGHSVKYQSKVVKTRKFC | soluble
6 | MHCLSDFIPWNQVSVTGDFVGHIQELIRTEVLPYQWEALNDQIAGAEPSHCLDNFRAAAEKKGHIQFHGQPFQDSDIYKWIEAAAYTLAWHPDSDLEAKADQAIELICGAQQPDGYLNTYFILTGAQRWTHLLDGHELYCAGHLMEAAVAYYHATGKDKLLKAAQKLADHIADVFGTSPGKIPGYPGHPEVELALIRLFEATGNIKYQQLAQYFICQRGASPSIFRKEADQFGWDWADSPFQFQFYQAGKPILEQTELEGHAVRALYLCCGIADVAARTQDAALLETCRRLWEDLTQTKLYITGGAGSSVYGEAFTFAYDLPNDTAYAETCAAVAVCFFAQRMMKISPSGAYGDVLEQALYNGVLSGMALDGKSFFYVNPLEVVPEACQKDQRKKHVKPIRQKWFACACCPPNLARLFASIGGYLHFIRAETLYTNLYVTSTSEFTFQGLPIKLHMDSAYPFDEKIHISLSLPRPMEFSYAVRIPAWCADYHVLINGKICAGTLKDGFLYLHRCWRDGDEVELTLSMPVRVVRANSLVRENIGKSAICRGPIVYCMEQTDNGPQLHRNRICGKPSFTISSGEENLKGLPCISCSGEYLLPDGTQLYTSAKESFQPKTLRFIPYFAWCNRSPGEMAVWVRHDTILEHHHHHH | soluble
7 | MALFSPYALGATLYMPATRDDIVDVVFGEKIPELRSLVVCLEDAVALIDVDTALLNLRQVLTRIHDRGGRPANGPLLFVRPRDAAMARILNDWPLMAHVDGFVVPKLSLKSLTSWEEAVTNPALALMPTLETPEVFNPTAMVELGQALKASLHERIIALRIGGNDLMGCLGLRRNPAMTLYSTPMGYVIPMLAGVMGAQGFALTAPVFEQLATPDILEQELALDITNGLVGKTAIHPSQVNIIQNALRVSLEDMNSARMILNSVAPAVFKYNDAMCEPATHYKWATHIMERAKWHGVLPTPASIMDASIRLAEAVSLEHHHHHH | soluble
8 | EDPSLDRPFISEGTTLKDLIYDMTTSGSGSGLPLLVQRTIARTIVLQESIGKGRFGEVWRGKWRGEEVAVKIFSSREERSWFREAEIYQTVMLRHENILGFIAADNKDNGTWTQLWLVSDYHEHGSLFDYLNRYTVTVEGMIKLALSTASGLAHLHMEIVGTQGKPAIAHRDLKSKNILVKKNGTCCIADLGLAVRHDSATDTIDIAPNHRVGTKRYMAPEVLDDSINMKHFESFKRADIYAMGLVFWEIARRCSIGGIHEDYQLPYYDLVPSDPSVEEMRKVVCEQKLRPNIPNRWQSCEALRVMAKIMRECWYANGAARLTALRIKKTLSQLSQQEGIKM | soluble
9 | MGSDKIHHHHHHMIMNNHRMLPDQDAWEPWSPAELSRRLSGISRPWCIVGGWALDLWHGSTMREHDDLEFTVLREDLEIFRRELSEMEFYTVNDGVLERLPPDRQPASEIFQIWCFDRTAKCWRVDMMIEPGTDDTWAYKRNPEITRPRTDMVALTADGIPYLNPSAVLLFKAKHRRPKDEQDFVNAHPKLLLSERRWLRNCLELLHPGHEWAQAL | not soluble
10 | MGSDKIHHHHHHASCEKDPDMGKLDDNYLVYTNYDKQANFKDFSTFYLADKILVISDSKEPEYLEGEGAEQILAAYTENMEAKGYQPAADKESADLGIQVSYIASTYYFTGYTQPEWWWGYPGYWGPSYWGNWGGWYYPYAVTYSYSTNSFITEMVNLKADEGEGKKLPVVWTSYLTGFETGSKAINRTLAIEAVNQSFTQSPYLTNK | not soluble
11 | MLKQVEIFTDGSCLGNPGPGGYGAILRYRGREKTFSAGYTRTTNNRMELMAAIVALEALKEHCEVILSTDSQYVRQGITQWIHNWKKRGWKTADKKPVKNVDLWQRLDAALGQHQIKWEWVKGHAGHPENERCNELARAAAMNPTLEDTGYQVEV | soluble
12 | MKYKSVFDIIGPVMVGPSSSHTAGAVRIGLVARKLFGRKPTWARISFYGSFAETYRGHGTDVAIVAGLLGFDTFDERLPNALEIAQAEGVDVSFSAEEAIPHHPNTARLRIGDDEGELELVGISIGGGKIEIVELNGFALKLSGHHPALLIMHNDRYGTIGAVASVLAKRKINIGHMEVSRKEKGKEALMAIEVDQPLTDDLIQELEQLPNIIQVAKLAD | not soluble
13 | MTAHLAAINGLRLKAECSNCGVRELCLSVGMSLTDTDRLSAIIPQPIKVKKGAALYHAGDPLQSLYAVRFGFFKTTISSQDGRDQLTGFQMSGELLGCDAISNDCHVCDAIALEDSEVCPIRFTHLERLSREMPSLQHNLNRALSKEIVRDHEMLLLLGNLNAEERMAAFLLNLSGRMFNRGYSATAFVLRMTREDIGSYLGLRLETICRAIANLRNLRIVSISGRQVEILDLNRLQALIHGCSYRAKSL | not soluble
14 | ASGRRAPRTGLLELRCGAGSGAGGERWQRVLLSLAEDALTVSPADGEPGPEPEPAQLNGAAEPGAAPPQLPEALLLQRRRVTVRKADAGGLGISIKGGRENKMPILISKIFKGLAADQTEALFVGDAILSVNGEDLSSATHDEAVQALKKTGKEVVLEVKYMKEVSPYFKNSAGGTSVGWDSPPASPLQRQPSSPGPQPRNLSEAKHVSLKMAYVSRRCTPTDPEPRYLEICAADGQDAVFLRAKDEASARSWAGAIQAQIGT | soluble
15 | MAHHHHHHMYSTTNDKSENEDLNDVIEININNIANKLANILYITNVGMKENCELKNNLHFSKFLNDMRSYCVNLIQSINNLNSNFYNLTCLPVHSIPRNPYTNILDINVITNNISVDDNADKIKEKQTLLQSFHNKYDKNKTTFHQSIKHIETFNDQLFSALNNLDHIKMSIKYQDQESSTYGNVVSERLKNKQKDHEHLELYIARVHYGLF | not soluble
16 | DVDEVLRLCAEGLHDVLGYERVNILMADTARTSLSFVAAVGTADFNPAGVVLPLDQRGGVITKCFTDRQVYMIDDVSAYPTDFRLQSPYDAIRALRSKSFVICPIVVKGEAIGVFAVDNRSSR | not soluble
17 | MLLTNKGDVMLGLKQVHHIAIIATDYAVSKAFYCDILGFTLQSEVYREARDSWKGDLALNGQYVIELFSFPFPPERPSRPEACGLRHLAFSVDDIDAAVAHLESHNVKCEAIRVDPYTQKRFTFFNDPDGLPLELYEQ | not soluble
18 | MGSDKIHHHHHHMKEIRIILMGTGNVGLNVLRIIDASNRRRSAFSIKVVGVSDSRSYASGRNLDISSIISNKEKTGRISDRAFSGPEDLMGEAADLLVDCTPASRDGVREYSLYRMAFESGMNVVTANKSGLANKWHDIMDSANQNSKYIRYEATVAGGVPLFSVLDYSILPSKVKRFRGIVSSTINYVIRNMANGRSLRDVVDDAIKKGIAESNPQDDLNGLDAARKSVILVNHIFGTEYTLNDVEYSGVDERSYNANDRLVTEVYVDDRRPVAVSRIISLNKDDFLMSIGMDGLGYQIETDSNGTVNVSDIYDGPYETAGAVVNDILLLSKVQK | not soluble
19 | MKSLQALFGGTFDPVHYGHLKPVETLANLIGLTRVTIIPNNVPPHRPQPEANSVQRKHMLELAIADKPLFTLDERELKRNAPSYTAQTLKEWRQEQGPDVPLAFIIGQDSLLTFPTWYEYETILDNAHLIVCRRPGYPLEMAQPQYQQWLEDHLTHNPEDLHLQPAGKIYLAETPWFNISATIIRERLQNGESCEDLLPEPVLTYINQQGLYR | soluble
20 | MMRGGMGNMQKMLKQMQKMQKEMQKAQEELAEKTVEGTAGGGMVTVVANGHKQILEVKIKEEVVDPDDIEMLQDLILAATNDALKKADELANEMMGQFTKGLNIPGLF | not soluble
21 | DHVLLITGGTRGIGLLCARHFAECYGVKKLVLTGREQLPPREEWARFKTSNTSLAEKIQAVRELEAKGVQVEMLSLTLSDDAQVEQTLQHIKRTLGPIGGVIHCAGLTDMDTLAFIRKTSDDIQRVLEPKVSGLTTLYRHVCNEPLQFFVLFSSVSAIIPELSAGQADYAMANSYMDYFAEAHQKHAPIISVQWPNWKETGMGEVTNQAYRDSGLLSITNSEGLRFLDQIVSKKFGPVVLPAMANQTNWEPELLMK | soluble
22 | SSDLGSEELEEEGENDLGEYEGERNELGERHGHGKARLPNGDTYEGNYESGKRHGQGTYKFKNGARYVGDYVKNKKHGQGTFVYPDGSRYEGEWADDQRHGHGVYYYVNNDTYTGEWFNHQRHGQGTYFYAETGSKYVGTWVHGQQEGAAELIHLNHRYQGKFINKNPVGPGKYVFDVGCEQHGEYRLTDVERGEEEEEEETLVSIVPKWKALKITELALWTPTLSEEHPPAEGQGQEEVQGATGAGEPSDDIQAEGFEVDAEPRTGEEDIDFRQESQENSYDLDQGNPNFDEEQLDLQE | soluble
23 | MSERAYNFNAGPAALPLEVLERAQAEFVDYQHTGMSIMEMSHRGAVYEAVHNEAQARLLALLGNPTGYKVLFIQGGASTQFAMIPMNFLKEGQTANYVMTGSWASKALKEAKLIGDTHVAASSEASNYMTLPKLQEIQLQDNAAYLHLTSNETIEGAQFKAFPDTGSVPLIGDMSSDILSRPFDLNQFGLVYAGAQKNLGPSGVTVVIVREDLVAESPKHLPTMLRYDTYVKNNSLYNTPPSFGIYMVNEVLKWIEERGGLEGVQQANRKKASLIYDAIDQSGGFYRGCVDVDSRSDMNITFRLASEELEKEFVKASEQEGFVGLKGHRSVGGLRASIYNAVPYESCEALVQFMEHFKRSRG | soluble
24 | MSLGNAPLPFDVGGPFELTDQHGARRSQADPQGHGQLLFFGYATCPGICSAAMPMMADAVDRLAEAGIPVTPVMITVDPERDRPGEMNAPLARYHPDFIGLTGSEAELQAAYSAYSVERELAYVDPEYGPVYTHGAFIYLLDAKGEVLSLFPPILSSDRVVELARKYLGSEGEGHHHHHH | soluble
25 | MSIKQWPEGERPREKLLERGAAALSDAELLAILLRVGTRGMSAVDLARYLLQEFGSLGRLMSAEVGKLSAYKGMGTASFTQFAVVREIGRRILAEELQESIVLSDPDTVADYLRFHLGQEKVEVSVALLLNRQNQLIAVRELSRGTVAENTIYIREIVKLALDEYADSLIIAHNHPGGSPEPSQEDIMFTRRLAQAMSLVDVSLLDHFIVTSQSVCSFRQLGLMP | not soluble
